Experimental data: doi:10.1101/379156
Values belong to the substance of their own block, whether it stands above or below them.

What was measured:
Assay in all cases: SEC
[1] = biological target: bimodular construct 25 (MAT-ACP didomain fused to full-length mFAS) (Mus musculus) (UniProt P19096)
[2] = biological target: mFAS alpha-module, construct 17 (KS-MAT-ACP, mFAS sequences only) (Mus musculus)
[3] = biological target: mFAS alpha-module, construct 22 (KS-MAT-ACP-TE, mFAS sequences only) (Mus musculus)
[4] = biological target: mFAS delta-module, construct 6 (2-2195) (Mus musculus) (UniProt P19096)
[5] = biological target: murine fatty acid synthase (mFAS) (Mus musculus) (UniProt P19096); conditions: remark: other sources report otherwise

Substance: mFAS alpha-module, construct 17 (KS-MAT-ACP, mFAS sequences only) (domain or fragment)
stoichiometry N [2]: 2

Substance: mFAS delta-module, construct 6 (2-2195), P19096 2-2195
stoichiometry N [4]: 2

Substance: murine fatty acid synthase (mFAS), P19096 1-2504
stoichiometry N [5]: 2

Results, then the substance that gave them:

stoichiometry N [1]: 2
Substance: bimodular construct 25 (MAT-ACP didomain fused to full-length mFAS) (from UniProt P19096 1-2504)

stoichiometry N [3]: 2
Substance: mFAS alpha-module, construct 22 (KS-MAT-ACP-TE, mFAS sequences only) (domain or fragment)
